The target of one series is JEV NS5 (Japanese encephalitis virus, UniProt P27395 2528-3432). The experiment in a line: EMSA. To be noted: protein: recombinant; label: radioactive. A general note: A gel shift assay detects complexes by their altered migration in electrophoresis.
Series [1] concerns the target SARS-CoV-2 nucleoprotein (SC_NP) (SARS-CoV-2, UniProt P0DTC9 1-419). Nature of the series: EMSA. To be noted: protein: recombinant; chain copies: 2; label: radioactive.
For the next series, the target named is YFV NS5 (Yellow fever virus, UniProt P03314 2507-3411). The experiment in a line: EMSA. To be noted: protein: recombinant; label: radioactive.
For series [2], the target named is HIV reverse transcriptase (HIV-rt) (HIV, UniProt P04585;P04585 588-1147;588-1027). To be noted: protein: recombinant; copies: 1;1; label: radioactive.
The target in a further series is T7 RNA polymerase (bacteriophage T7, UniProt P00573 1-883). Conditions: label: radioactive.

Take GAUACUAAGGGAAUAAAUUGAGAGAGAUAAAUUUAU (ssRNA, C5 = 5-(ethoxysquaramate-linked) cytidine (CESQ)) [36_vRNA_1gCESQ]: the binding result with JEV NS5 is “binds”; in series [1], “binds”; in the series with YFV NS5 it was “binds”; in series [2], “binds”; with T7 RNA polymerase, “no binding”.

(Values after publication PMC11696893, “Enzymatic synthesis of reactive RNA probes containing squaramate-linked cytidine or adenosine for bioconjugations and cross-linking with lysine-containing peptides and proteins”.)
